# Reference: publication PMC11623927, “Synthesis and biological assessment of chalcone and pyrazoline derivatives as novel inhibitor for ELF3-MED23 interaction” (eLife, 2024)
# Ends that are not written are not given here.
# T1: Cluc-MED23_(391-582) (UniProt Q9ULK4 391-582)
# T1 construct: MED23 residues 391-582; also called MED23_(391-582) fragment fused with Cluc; source: HEK293, transfected, in cells
# T1 sequence (looked up): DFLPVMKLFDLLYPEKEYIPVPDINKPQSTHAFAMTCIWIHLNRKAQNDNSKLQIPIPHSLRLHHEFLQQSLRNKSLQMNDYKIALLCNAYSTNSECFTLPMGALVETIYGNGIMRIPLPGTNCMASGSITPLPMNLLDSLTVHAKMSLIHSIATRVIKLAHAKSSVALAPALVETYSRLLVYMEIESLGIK
# T2: (His)6-MED23_(391-582) protein (UniProt Q9ULK4 391-582)
# T2 construct: MED23 (mediator of RNA polymerase II transcription subunit 23), residues 391-582
# T2 sequence (looked up): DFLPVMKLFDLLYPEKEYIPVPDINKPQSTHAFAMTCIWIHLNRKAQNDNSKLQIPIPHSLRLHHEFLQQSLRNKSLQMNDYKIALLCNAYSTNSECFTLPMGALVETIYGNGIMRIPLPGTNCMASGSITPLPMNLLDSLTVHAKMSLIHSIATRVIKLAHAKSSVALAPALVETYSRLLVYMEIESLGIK
# T3: (His)6-MED23_(391-582) protein (UniProt Q9ULK4 391-582)
# T3 chain: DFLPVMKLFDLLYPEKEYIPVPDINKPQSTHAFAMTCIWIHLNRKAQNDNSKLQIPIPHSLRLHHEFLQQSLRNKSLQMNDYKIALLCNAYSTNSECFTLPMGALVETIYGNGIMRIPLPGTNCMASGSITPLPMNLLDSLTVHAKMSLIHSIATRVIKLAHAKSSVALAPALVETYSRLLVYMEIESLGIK
# Columns and labels:
# [1] = molecular target: T4, MED23 (mediator of RNA polymerase II transcription subunit 23) (Homo sapiens, UniProt Q9ULK4); experiment: cell-free fluorescence polarization displacement of FITC-ELF3_[…]-145 from (His)6-MED23_[…]-582; assay type: binding
# T4 construct: (His)6-MED23_391-582; with ELF3 (FITC-labeled ELF3_129-145 peptide)
# [2] = molecular target: T1, Cluc-MED23_(391-582); experiment: split reporter (BiFC, NanoBiT); split firefly luciferase complementation in HEK293 co-transfected with Nluc-ELF3 and Cluc-MED23(391-582); without compound 10; details: partners not purified
# [3] = molecular target: T2, (His)6-MED23_(391-582) protein; experiment: fluorescence polarisation; cell-free; different concentrations of (His)6-MED23(391-582) with 10 nM FITC-ELF3(129-145) in assay buffer; least-squares non-linear fit; n=3; details: both partners purified
# [4] = molecular target: T3, (His)6-MED23_(391-582) protein; experiment: FP; competition with FITC-ELF3(129-145)
# [5] = molecular target: T2, (His)6-MED23_(391-582) protein; experiment: fluorescence polarisation; cell-free displacement; varying concentrations of unlabeled ELF3(137-144) peptide added to 80 nM (His)6-MED23(391-582) and 10 nM FITC-ELF3(129-145); Ki from IC50 by the Cheng-Prusoff equation; n=3; details: both partners purified
molecule,measurement,setting,value
"COc1ccc(/C=C/C(=O)c2cc(OC)c(OC)c(OC)c2)cc1OCC=C(C)C [compound 10, (E)–3-(4-Methoxy-3-((3-methylbut-2-en-1-yl)oxy)phenyl)–1-(3,4,5-trimethoxyphenyl) prop-2-en-1-one]",Ki,[1],0.68 ± 0.08 µM
"Nluc-ELF3WT (natural protein, UniProt P78545 1-371, looked up, ELF3, full-length cDNA, wild type; source: HEK293, transfected, in cells) MAATCEISNIFSNYFSAMYSSEDSTLASVPPAATFGADDLVLTLSNPQMSLEGTEKASWLGEQPQFWSKTQVLDWISYQVEKNKYDASAIDFSRCDMDGATLCNCALEELRLVFGPLGDQLHAQLRDLTSSSSDELSWIIELLEKDGMAFQEALDPGPFDQGSPFAQELLDDGQQASPYHPGSCGAGAPSPGSSDVSTAGTGASRSSHSSDSGGSDVDLDPTDGKLFPSDGFRDCKKGDPKHGKRKRGRPRKLSKEYWDCLEGKKSKHAPRGTHLWEFIRDILIHPELNEGLMKWENRHEGVFKFLRSEAVAQLWGQKKKNSNMTYEKLSRAMRYYYKREILERVDGRRLVYKFGKNSSGWKEEEVLQSRN",fold change of bioluminescence vs. control,[2],32.7 fold
"TSSSSDELSWIIELLEK (peptide, UniProt P78545 129-145, looked up, also: FITC label, position not given here, also called ELF3-FITC peptide (17 a.a.)) [fluorescein isothiocyanate (FITC)-labeled ELF3_(129-145) peptide]",Kd,[3],0.0102 µM
"SWIIELLE (peptide, UniProt P78545 137-144, looked up, ELF3 residues 137-144 (S137 to E144), within the TAD domain; Positive control of the FP displacement assay) [unlabeled ELF3_(137-144) peptide]",IC50,[4],8.81 µM
same,Ki,[5],4.47 µM
